Test results published in patent JP2012050437A.

Target: soluble Aβ1-42 (125I-labelled) (human) (UniProt P05067)
Test: capture radioimmunoassay, 50,000 CPM 125I-Aβ1-42, antibody at 10 µg/ml

percent of radioactive counts bound at 10 µg/ml: 2%
Substance: murine monoclonal antibody 10D5 (isotype IgG1)
